From paper PMC9482650, “Quantitative fragmentomics allow affinity mapping of interactomes” (Nature Communications, 2022)

B1: APPL1, Q9UKG1 (peptide)
chain: EGGKKRESEA
B2: EZH1, Q92800 (peptide)
chain: VGIERETDVL

These binders were tested against T1, HTRA4, P83105 (assay: holdup assay). Settings: plain residues with an end cap or a label only (N-terminal biotin on a linker: ado-ado).
T1 sequence (P83105 378-476, limits assumed, looked up): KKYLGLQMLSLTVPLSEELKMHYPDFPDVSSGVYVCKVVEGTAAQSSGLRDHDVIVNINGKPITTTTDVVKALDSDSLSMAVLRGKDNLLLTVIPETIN
Design: key: below the threshold = too weak to quantify, mostly under pKd 3.1 to 4

Binder	pKd
B1	below the threshold
B2	below the threshold

These binders were tested against FRMPD4, Q14CM0 (assay: holdup assay). Settings: plain residues with an end cap or a label only (N-terminal biotin on a linker: ado-ado).
Chain of FRMPD4, Q14CM0 (Q14CM0 67-160): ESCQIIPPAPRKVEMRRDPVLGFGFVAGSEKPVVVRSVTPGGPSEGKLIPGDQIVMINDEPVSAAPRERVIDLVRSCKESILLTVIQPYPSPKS
Design: key: below the threshold = too weak to quantify, mostly under pKd 3.1 to 4

Binder	pKd
B1	below the threshold
B2	3.87

What follows are binders tested against Inadl_4, Q8NI35 (assay: holdup assay). Settings: plain residues with an end cap or a label only (N-terminal biotin on a linker: ado-ado).
Chain of Inadl_4, Q8NI35 (Q8NI35 547-651): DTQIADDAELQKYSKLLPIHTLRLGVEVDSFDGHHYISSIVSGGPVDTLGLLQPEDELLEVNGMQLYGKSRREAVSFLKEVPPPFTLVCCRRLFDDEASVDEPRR
Design: key: below the threshold = too weak to quantify, mostly under pKd 3.1 to 4

Binder	pKd
B1	below the threshold
B2	below the threshold

Each binder was assayed against IL16_3, Q14005 (assay: holdup assay). Settings: plain residues with an end cap or a label only (N-terminal biotin on a linker: ado-ado).
Chain of IL16_3, Q14005 (Q14005 1107-1207): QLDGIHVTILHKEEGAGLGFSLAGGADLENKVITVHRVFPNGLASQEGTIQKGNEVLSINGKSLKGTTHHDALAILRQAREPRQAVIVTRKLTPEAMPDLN
Design: key: below the threshold = too weak to quantify, mostly under pKd 3.1 to 4

Binder	pKd
B1	below the threshold
B2	below the threshold

The binders below were run against DLG1_2, Q12959 (assay: holdup assay). Settings: plain residues with an end cap or a label only (N-terminal biotin on a linker: ado-ado).
Chain of DLG1_2, Q12959 (Q12959 314-412): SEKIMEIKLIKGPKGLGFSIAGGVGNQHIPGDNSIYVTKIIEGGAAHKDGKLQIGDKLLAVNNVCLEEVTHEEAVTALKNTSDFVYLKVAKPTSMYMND
Design: key: below the threshold = too weak to quantify, mostly under pKd 3.1 to 4

Binder	pKd
B1	below the threshold
B2	3.85

What follows are binders tested against TJP1_2, Q07157 (assay: holdup assay). Settings: plain residues with an end cap or a label only (N-terminal biotin on a linker: ado-ado).
Chain of TJP1_2, Q07157 (Q07157 181-274): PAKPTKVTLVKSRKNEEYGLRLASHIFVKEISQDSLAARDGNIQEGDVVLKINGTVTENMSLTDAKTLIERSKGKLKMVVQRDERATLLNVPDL
Design: key: below the threshold = too weak to quantify, mostly under pKd 3.1 to 4

Binder	pKd
B1	below the threshold
B2	below the threshold

The binders below were run against MAGI2_2, Q86UL8 (assay: holdup assay). Settings: plain residues with an end cap or a label only (N-terminal biotin on a linker: ado-ado).
Chain of MAGI2_2, Q86UL8 (Q86UL8 410-522): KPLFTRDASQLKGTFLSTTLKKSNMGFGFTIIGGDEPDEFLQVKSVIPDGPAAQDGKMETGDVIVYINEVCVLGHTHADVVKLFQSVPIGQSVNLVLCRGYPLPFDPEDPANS
Design: key: below the threshold = too weak to quantify, mostly under pKd 3.1 to 4

Binder	pKd
B1	below the threshold
B2	below the threshold

The binders below were run against T2, PDZRN3_1, Q9UPQ7 (assay: holdup assay). Settings: plain residues with an end cap or a label only (N-terminal biotin on a linker: ado-ado).
T2 sequence (Q9UPQ7 244-349, limits assumed, looked up): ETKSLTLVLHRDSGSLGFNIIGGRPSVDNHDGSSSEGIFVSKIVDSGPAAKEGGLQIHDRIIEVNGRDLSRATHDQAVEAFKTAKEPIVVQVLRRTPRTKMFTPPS
Design: key: below the threshold = too weak to quantify, mostly under pKd 3.1 to 4

Binder	pKd
B1	below the threshold
B2	below the threshold

What follows are binders tested against DLG4_1, P78352 (assay: holdup assay). Settings: plain residues with an end cap or a label only (N-terminal biotin on a linker: ado-ado).
Chain of DLG4_1, P78352 (P78352 62-152): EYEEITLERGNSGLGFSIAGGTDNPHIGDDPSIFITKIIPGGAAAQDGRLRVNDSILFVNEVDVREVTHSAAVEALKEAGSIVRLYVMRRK
Design: key: below the threshold = too weak to quantify, mostly under pKd 3.1 to 4

Binder	pKd
B1	below the threshold
B2	below the threshold

These binders were tested against FRMPD3, Q5JV73 (assay: holdup assay). Settings: plain residues with an end cap or a label only (N-terminal biotin on a linker: ado-ado).
Chain of FRMPD3, Q5JV73 (Q5JV73 12-100): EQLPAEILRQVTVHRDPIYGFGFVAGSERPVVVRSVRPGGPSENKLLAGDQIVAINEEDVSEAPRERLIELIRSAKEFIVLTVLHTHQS
Design: key: below the threshold = too weak to quantify, mostly under pKd 3.1 to 4

Binder	pKd
B1	below the threshold
B2	below the threshold

The binders below were run against T3, APBA2_2, Q99767 (assay: holdup assay). Settings: plain residues with an end cap or a label only (N-terminal biotin on a linker: ado-ado).
T3 sequence (Q99767 654-744, limits assumed, looked up): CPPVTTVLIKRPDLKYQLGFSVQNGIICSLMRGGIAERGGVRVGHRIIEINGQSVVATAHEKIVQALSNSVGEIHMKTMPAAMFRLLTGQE
Design: key: below the threshold = too weak to quantify, mostly under pKd 3.1 to 4

Binder	pKd
B1	below the threshold
B2	below the threshold

Each binder was assayed against GOPC, Q9HD26 (assay: holdup assay). Settings: plain residues with an end cap or a label only (N-terminal biotin on a linker: ado-ado).
Design: key: below the threshold = too weak to quantify, mostly under pKd 3.1 to 4

Binder	pKd
B1	below the threshold
B2	below the threshold

These binders were tested against LNX1_1, Q8TBB1 (assay: holdup assay). Settings: plain residues with an end cap or a label only (N-terminal biotin on a linker: ado-ado).
Chain of LNX1_1, Q8TBB1 (Q8TBB1 261-371): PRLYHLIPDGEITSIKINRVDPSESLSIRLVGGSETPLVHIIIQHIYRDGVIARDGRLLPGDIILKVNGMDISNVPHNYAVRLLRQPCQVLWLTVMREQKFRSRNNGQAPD
Design: key: below the threshold = too weak to quantify, mostly under pKd 3.1 to 4

Binder	pKd
B1	below the threshold
B2	below the threshold

Each binder was assayed against GRIP2_7, Q9C0E4 (assay: holdup assay). Settings: plain residues with an end cap or a label only (N-terminal biotin on a linker: ado-ado).
Chain of GRIP2_7, Q9C0E4 (Q9C0E4 934-1023): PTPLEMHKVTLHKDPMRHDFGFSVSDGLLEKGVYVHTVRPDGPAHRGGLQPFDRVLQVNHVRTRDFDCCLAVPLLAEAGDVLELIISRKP
Design: key: below the threshold = too weak to quantify, mostly under pKd 3.1 to 4

Binder	pKd
B1	below the threshold
B2	below the threshold

What follows are binders tested against DLG2_3, Q15700 (assay: holdup assay). Settings: plain residues with an end cap or a label only (N-terminal biotin on a linker: ado-ado).
Design: key: below the threshold = too weak to quantify, mostly under pKd 3.1 to 4

Binder	pKd
B1	3.73
B2	below the threshold

The binders below were run against MAGI1_1, Q96QZ7 (assay: holdup assay). Settings: plain residues with an end cap or a label only (N-terminal biotin on a linker: ado-ado).
Chain of MAGI1_1, Q96QZ7 (Q96QZ7 1-106): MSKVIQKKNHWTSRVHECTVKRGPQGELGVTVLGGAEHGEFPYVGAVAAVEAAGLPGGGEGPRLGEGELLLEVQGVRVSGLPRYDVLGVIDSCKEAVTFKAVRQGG
Design: key: below the threshold = too weak to quantify, mostly under pKd 3.1 to 4

Binder	pKd
B1	below the threshold
B2	below the threshold

What follows are binders tested against Inadl_5, Q8NI35 (assay: holdup assay). Settings: plain residues with an end cap or a label only (N-terminal biotin on a linker: ado-ado).
Chain of Inadl_5, Q8NI35 (Q8NI35 673-780): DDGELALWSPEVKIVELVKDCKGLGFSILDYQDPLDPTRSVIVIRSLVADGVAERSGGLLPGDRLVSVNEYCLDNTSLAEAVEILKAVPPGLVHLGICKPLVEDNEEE
Design: key: below the threshold = too weak to quantify, mostly under pKd 3.1 to 4

Binder	pKd
B1	below the threshold
B2	below the threshold

What follows are binders tested against IL16_4, Q14005 (assay: holdup assay). Settings: plain residues with an end cap or a label only (N-terminal biotin on a linker: ado-ado).
Chain of IL16_4, Q14005 (Q14005 1229-1329): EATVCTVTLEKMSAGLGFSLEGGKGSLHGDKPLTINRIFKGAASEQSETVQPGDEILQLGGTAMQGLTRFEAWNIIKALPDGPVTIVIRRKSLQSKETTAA
Design: key: below the threshold = too weak to quantify, mostly under pKd 3.1 to 4

Binder	pKd
B1	below the threshold
B2	3.48

The binders below were run against HTRA1, Q92743 (assay: holdup assay). Settings: plain residues with an end cap or a label only (N-terminal biotin on a linker: ado-ado).
Chain of HTRA1, Q92743 (Q92743 360-477): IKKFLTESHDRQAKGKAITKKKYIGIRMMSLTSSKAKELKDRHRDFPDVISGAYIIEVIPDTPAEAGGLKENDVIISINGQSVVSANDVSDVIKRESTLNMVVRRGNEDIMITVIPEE
Design: key: below the threshold = too weak to quantify, mostly under pKd 3.1 to 4

Binder	pKd
B1	below the threshold
B2	4.17

What follows are binders tested against PDLIM1, O00151 (assay: holdup assay). Settings: plain residues with an end cap or a label only (N-terminal biotin on a linker: ado-ado).
Chain of PDLIM1, O00151 (O00151 1-87): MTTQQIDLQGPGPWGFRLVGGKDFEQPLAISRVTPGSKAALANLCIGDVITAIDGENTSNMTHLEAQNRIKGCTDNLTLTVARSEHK
Design: key: below the threshold = too weak to quantify, mostly under pKd 3.1 to 4

Binder	pKd
B1	below the threshold
B2	below the threshold

These binders were tested against MAGI2_5, Q86UL8 (assay: holdup assay). Settings: plain residues with an end cap or a label only (N-terminal biotin on a linker: ado-ado).
Chain of MAGI2_5, Q86UL8 (Q86UL8 915-1017): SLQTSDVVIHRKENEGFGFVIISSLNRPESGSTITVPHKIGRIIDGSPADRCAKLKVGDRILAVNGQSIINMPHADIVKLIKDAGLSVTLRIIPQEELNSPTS
Design: key: below the threshold = too weak to quantify, mostly under pKd 3.1 to 4

Binder	pKd
B1	below the threshold
B2	below the threshold

These binders were tested against DLG4_2, P78352 (assay: holdup assay). Settings: plain residues with an end cap or a label only (N-terminal biotin on a linker: ado-ado).
Chain of DLG4_2, P78352 (P78352 155-259): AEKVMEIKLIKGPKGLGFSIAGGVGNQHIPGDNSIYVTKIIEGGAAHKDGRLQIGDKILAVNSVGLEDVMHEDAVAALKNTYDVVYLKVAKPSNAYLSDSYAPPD
Design: key: below the threshold = too weak to quantify, mostly under pKd 3.1 to 4

Binder	pKd
B1	below the threshold
B2	below the threshold

Each binder was assayed against DLG4_3, P78352 (assay: holdup assay). Settings: plain residues with an end cap or a label only (N-terminal biotin on a linker: ado-ado).
Chain of DLG4_3, P78352 (P78352 306-403): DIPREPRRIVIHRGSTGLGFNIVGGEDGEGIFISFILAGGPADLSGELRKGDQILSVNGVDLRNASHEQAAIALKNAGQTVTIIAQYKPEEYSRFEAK
Design: key: below the threshold = too weak to quantify, mostly under pKd 3.1 to 4

Binder	pKd
B1	below the threshold
B2	below the threshold

Each binder was assayed against T4, LIN7C, Q9NUP9 (assay: holdup assay). Settings: plain residues with an end cap or a label only (N-terminal biotin on a linker: ado-ado).
T4 sequence (Q9NUP9 88-185, limits assumed, looked up): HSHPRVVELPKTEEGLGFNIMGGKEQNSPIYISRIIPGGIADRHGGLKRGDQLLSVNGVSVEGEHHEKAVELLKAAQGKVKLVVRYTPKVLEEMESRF
Design: key: below the threshold = too weak to quantify, mostly under pKd 3.1 to 4

Binder	pKd
B1	below the threshold
B2	below the threshold

What follows are binders tested against GRASP, Q7Z6J2 (assay: holdup assay). Settings: plain residues with an end cap or a label only (N-terminal biotin on a linker: ado-ado).
Chain of GRASP, Q7Z6J2 (Q7Z6J2 96-193): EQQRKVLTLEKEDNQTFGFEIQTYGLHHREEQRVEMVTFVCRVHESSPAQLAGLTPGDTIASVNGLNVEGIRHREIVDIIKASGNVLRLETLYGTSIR
Design: key: below the threshold = too weak to quantify, mostly under pKd 3.1 to 4

Binder	pKd
B1	below the threshold
B2	4.36

Each binder was assayed against T5, LNX2_2, Q8N448 (assay: holdup assay). Settings: plain residues with an end cap or a label only (N-terminal biotin on a linker: ado-ado).
T5 sequence (Q8N448 334-432, limits assumed, looked up): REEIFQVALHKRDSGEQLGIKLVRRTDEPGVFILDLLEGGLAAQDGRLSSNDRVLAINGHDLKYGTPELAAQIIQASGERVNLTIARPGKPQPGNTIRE
Design: key: below the threshold = too weak to quantify, mostly under pKd 3.1 to 4

Binder	pKd
B1	below the threshold
B2	below the threshold

The binders below were run against LAP2, Q96RT1 (assay: holdup assay). Settings: plain residues with an end cap or a label only (N-terminal biotin on a linker: ado-ado).
Chain of LAP2, Q96RT1 (Q96RT1 other isoform, or with tags, fused parts or gaps): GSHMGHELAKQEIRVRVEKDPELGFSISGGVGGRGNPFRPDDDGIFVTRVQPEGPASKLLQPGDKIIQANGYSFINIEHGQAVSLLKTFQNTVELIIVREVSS
Design: key: below the threshold = too weak to quantify, mostly under pKd 3.1 to 4

Binder	pKd
B1	3.59
B2	below the threshold

The binders below were run against MAGI2_3, Q86UL8 (assay: holdup assay). Settings: plain residues with an end cap or a label only (N-terminal biotin on a linker: ado-ado).
Chain of MAGI2_3, Q86UL8 (Q86UL8 600-682): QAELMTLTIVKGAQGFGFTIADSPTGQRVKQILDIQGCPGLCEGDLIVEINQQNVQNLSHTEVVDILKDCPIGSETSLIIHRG
Design: key: below the threshold = too weak to quantify, mostly under pKd 3.1 to 4

Binder	pKd
B1	below the threshold
B2	below the threshold

The binders below were run against T6, ARHGAP21, Q5T5U3 (assay: holdup assay). Settings: plain residues with an end cap or a label only (N-terminal biotin on a linker: ado-ado).
T6 sequence (Q5T5U3 45-169, limits assumed, looked up): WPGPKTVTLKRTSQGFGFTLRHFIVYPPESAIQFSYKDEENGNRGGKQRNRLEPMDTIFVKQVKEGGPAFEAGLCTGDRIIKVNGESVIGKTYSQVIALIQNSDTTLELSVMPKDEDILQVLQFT
Design: key: below the threshold = too weak to quantify, mostly under pKd 3.1 to 4

Binder	pKd
B1	below the threshold
B2	3.92

Each binder was assayed against GORASP1, Q9BQQ3 (assay: holdup assay). Settings: plain residues with an end cap or a label only (N-terminal biotin on a linker: ado-ado).
Chain of GORASP1, Q9BQQ3 (Q9BQQ3 1-208): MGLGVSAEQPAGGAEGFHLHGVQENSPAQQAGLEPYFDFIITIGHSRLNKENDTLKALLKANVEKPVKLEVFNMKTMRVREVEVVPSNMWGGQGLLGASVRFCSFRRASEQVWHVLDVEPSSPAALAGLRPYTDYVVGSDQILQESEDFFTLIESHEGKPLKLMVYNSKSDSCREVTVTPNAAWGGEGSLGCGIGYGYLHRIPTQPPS
Design: key: below the threshold = too weak to quantify, mostly under pKd 3.1 to 4

Binder	pKd
B1	below the threshold
B2	below the threshold

Each binder was assayed against LDB3, O75112 (assay: holdup assay). Settings: plain residues with an end cap or a label only (N-terminal biotin on a linker: ado-ado).
Chain of LDB3, O75112 (O75112 1-94): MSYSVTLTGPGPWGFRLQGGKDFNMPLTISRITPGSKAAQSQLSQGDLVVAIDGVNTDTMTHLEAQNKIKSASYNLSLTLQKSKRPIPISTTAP
Design: key: below the threshold = too weak to quantify, mostly under pKd 3.1 to 4

Binder	pKd
B1	below the threshold
B2	below the threshold

What follows are binders tested against Inadl_8, Q8NI35 (assay: holdup assay). Settings: plain residues with an end cap or a label only (N-terminal biotin on a linker: ado-ado).
Chain of Inadl_8, Q8NI35 (Q8NI35 1425-1530): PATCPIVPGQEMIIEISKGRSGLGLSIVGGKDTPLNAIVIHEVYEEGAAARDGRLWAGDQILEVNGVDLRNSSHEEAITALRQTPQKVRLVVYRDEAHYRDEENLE
Design: key: below the threshold = too weak to quantify, mostly under pKd 3.1 to 4

Binder	pKd
B1	below the threshold
B2	below the threshold

What follows are binders tested against GRIP2_4, Q9C0E4 (assay: holdup assay). Settings: plain residues with an end cap or a label only (N-terminal biotin on a linker: ado-ado).
Chain of GRIP2_4, Q9C0E4 (Q9C0E4 446-548): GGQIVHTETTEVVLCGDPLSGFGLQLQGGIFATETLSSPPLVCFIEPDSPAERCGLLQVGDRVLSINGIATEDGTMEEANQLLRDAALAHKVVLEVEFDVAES
Design: key: below the threshold = too weak to quantify, mostly under pKd 3.1 to 4

Binder	pKd
B1	below the threshold
B2	below the threshold
